Laboratory results taken from article PMC5647379.

How the values were obtained:
[1] = target: dansylated calmodulin (D-CaM, 5-(dimethylamino)naphtalene-1-sulfonyl-calmodulin) (rat) (UniProt P0DP29); experiment: other fluorescence titration; D-CaM 12.5 nM in the cuvette, increasing concentrations of GST-fusion protein; no Ca2+ (EGTA 10 mM); Tris-HCl 25 mM pH 7.4, KCl 120 mM, NaCl 5 mM, MgCl2 2 mM; 25 °C; apparent affinity (EC50 of a Hill fit to the fluorescence enhancement)
[2] = target: dansylated calmodulin (D-CaM, 5-(dimethylamino)naphtalene-1-sulfonyl-calmodulin) (rat) (UniProt P0DP29); experiment: as above; remark: listed apart in the source
[3] = target: dansylated calmodulin (D-CaM, 5-(dimethylamino)naphtalene-1-sulfonyl-calmodulin) (rat) (UniProt P0DP29); experiment: other fluorescence titration; as a2 but with an excess of free Ca2+ (3.9 µM; 9.63 mM Ca2+ added to the Fluorescence buffer); apparent affinity (EC50)
[4] = target: Fluorescent dansylated CaM (D-CaM, 5-(dimethylamino)naphtalene-1-sulfonyl-calmodulin) (rat) (UniProt P0DP29); experiment: other fluorescence titration; increasing GST-fusion protein added to D-CaM (12.5 nM) in the cuvette; dansyl fluorescence enhancement, Hill fit, apparent affinity (EC50); 25 °C; Fluorescence buffer with 9.63 mM Ca2+ added (3.9 µM free Ca2+)
[5] = target: dansylated calmodulin (D-CaM, 5-(dimethylamino)naphtalene-1-sulfonyl-calmodulin) (rat) (UniProt P0DP29); experiment: dansyl-CaM fluorescence time course; D-CaM 12.5 nM in a stirred cuvette, emission at 500 nm against time; wt protein (400 nM) added, or one mutant (400 nM) and two minutes later the other mutant (400 nM); also 50 and 100 nM; Fluorescence buffer with or without Ca2+; 25 °C and 37 °C
[6] = target: mTurquoise2-Kv7.2-ABCD (residues 310-653) (human); experiment: FRET or BRET; equimolar mixtures (500 nM or 2.5 µM each) of purified CFP-ABCD/CaM (donor) and YFP-ABCD/CaM (acceptor) complexes; FRET index followed over time; KCl 120 mM, Hepes 50 mM, NaCl 5 mM, EGTA 5 mM, with or without Ca2+
[7] = target: Fluorescent dansylated CaM (D-CaM, 5-(dimethylamino)naphtalene-1-sulfonyl-calmodulin) (rat) (UniProt P0DP29); experiment: other fluorescence titration; increasing GST-fusion protein added to D-CaM (12.5 nM) in the cuvette; dansyl fluorescence enhancement, Hill fit, apparent affinity (EC50); 25 °C; Tris-HCl 25 mM pH 7.4, KCl 120 mM, NaCl 5 mM, MgCl2 2 mM, EGTA 10 mM; without Ca2+

Substance: GST-Kv7.2 ABCD (helices ABCD fused to GST) (domain or fragment)
- EC50 [1]: 9.2 nM
- EC50 [2]: 9.1 nM
- EC50 [3]: 15.1 nM

Substance: ABCD#-L609R (equal mixture of helix A and helix B mutants of ABCD carrying L609R)
- EC50 [2]: 120 nM

Substance: ABCD# (equimolar mixture of GST-ABCD-S511D and GST-ABCD-A343D of Kv7.2)
- EC50 [4]: 78.5 nM

Substance: ABCD# (equimolar mixture of ABCD-A343D and ABCD-S511D)
- EC50 [2]: 45.5 nM
- half-time in the trans-binding assay (400 nM) [5]: 6.5 min
- time to reach the half-maximal D-CaM fluorescence signal (400 nM, 25 °C) [5]: 12 min
- time to reach the half-maximal D-CaM fluorescence signal (400 nM, 37 °C) [5]: 9.2 min

Substance: mCitrine-Kv7.2-ABCD (residues 310-653) (domain or fragment)
- time to reach half maximal FRET (2.5 µM donor and acceptor) [6]: 6.9 min
- time to reach the half maximal FRET index (500 nM mixture) [6]: 12.2 min

Substance: ABCD#-L609R (equimolar mixture of GST-ABCD-S511D-L609R and GST-ABCD-A343D-L609R of Kv7.2)
- EC50 [4]: 173 nM
- EC50 [7]: 119 nM
